Consider 1 substance from publication doi:10.1101/2023.06.06.543845.

The target in this experiment is Mycobacterium thermoresistibile NrdI (Mycobacterium thermoresistibile). In words: cryo-EM structure.

The substance “Mycobacterium thermoresistibile NrdF2 (enzyme)” showed a stoichiometry N (NrdF2 per NrdI) of 2.
